Results: US20260275311, “CRISPR NUCLEASE POLYPEPTIDES AND GENE EDITING SYSTEMS COMPRISING SUCH” (ARBOR BIOTECHNOLOGIES, INC., published 2026)
Residue numbers refer to the chain shown, from its start.

T1: Nuclease A I67R (I67R)
T1 chain: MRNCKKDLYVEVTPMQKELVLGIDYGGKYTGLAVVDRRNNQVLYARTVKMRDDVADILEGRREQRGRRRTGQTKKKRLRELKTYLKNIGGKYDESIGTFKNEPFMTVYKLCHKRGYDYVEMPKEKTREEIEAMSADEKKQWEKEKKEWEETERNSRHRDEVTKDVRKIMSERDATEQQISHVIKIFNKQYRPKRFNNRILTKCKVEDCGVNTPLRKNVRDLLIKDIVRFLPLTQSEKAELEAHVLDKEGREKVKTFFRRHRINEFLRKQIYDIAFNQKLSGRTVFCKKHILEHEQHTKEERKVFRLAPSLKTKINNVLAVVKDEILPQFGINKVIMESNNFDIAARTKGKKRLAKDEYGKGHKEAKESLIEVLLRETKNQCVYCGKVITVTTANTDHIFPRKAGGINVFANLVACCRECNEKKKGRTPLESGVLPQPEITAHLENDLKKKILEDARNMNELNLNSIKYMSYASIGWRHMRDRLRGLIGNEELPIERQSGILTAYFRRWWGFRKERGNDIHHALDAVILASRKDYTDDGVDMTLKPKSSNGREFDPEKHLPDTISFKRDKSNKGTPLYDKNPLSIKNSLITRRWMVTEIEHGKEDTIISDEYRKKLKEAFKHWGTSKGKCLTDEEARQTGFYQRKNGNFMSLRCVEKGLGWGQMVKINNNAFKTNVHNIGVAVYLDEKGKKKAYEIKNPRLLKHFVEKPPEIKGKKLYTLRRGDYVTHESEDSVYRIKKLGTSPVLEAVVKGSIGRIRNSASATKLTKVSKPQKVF

T2: Nuclease A
T2 chain: T1 chain with R67I

T3: Nuclease A I67R/D568R/E706R
T3 chain: T1 chain with D568R, E706R

B1: Nuclease A AAVS1-T3 guide ; AAVS1-T3 target (ssRNA ; dsDNA)
RNA: UUGUGAGAAUGGUGCGUCCUGUUACAGUUAAGGCUCUUUGGAAACAAAGAAGCCUUAAUUGUAAAACGCCUAUAUGGUAAAGUGAUGUACGUUUGGGUAUAUAUCGCCAGCCUGAACCUCUACGCCAGAAAUGGCAGCUUUAUCAUGGGUUAGGACGAUAUUUAAAAAACUUUCUGCGGCUUGCUUACUUUAGUAAGCUUUGUGGCUGAGGCAGAAUUCCUU
DNA 1: TTGTGAGAATGGTGCGTCCT
DNA 2: AGGACGCACCATTCTCACAA
B2: Nuclease A VEGFA-T6 guide ; VEGFA-T6 target (ssRNA ; dsDNA)
RNA: UUUGCCCAUACUGGGGACCAGUUACAGUUAAGGCUCUUUGGAAACAAAGAAGCCUUAAUUGUAAAACGCCUAUAUGGUAAAGUGAUGUACGUUUGGGUAUAUAUCGCCAGCCUGAACCUCUACGCCAGAAAUGGCAGCUUUAUCAUGGGUUAGGACGAUAUUUAAAAAACUUUCUGCGGCUUGCUUACUUUAGUAAGCUUUGUGGCUGAGGCAGAAUUCCUU
DNA 1: TTTGCCCATACTGGGGACCA
DNA 2: TGGTCCCCAGTATGGGCAAA

Assays:
Conditions in all cases: tags: N-terminal SV40 NLS, C-terminal XTEN linker + nucleoplasmin NLS
[1] = molecular target: T1, Nuclease A I67R; assay: cell_activity; PAM NGG; HEK293T
[2] = molecular target: T2, Nuclease A; assay: cell_activity; PAM NGG (AGG); HEK293T
Description: (§1) Approximately 16 hours prior to transfection, 25,000 HEK293T cells in DMEM/10% FBS+Pen/Strep (D10 media) were plated into each well of a 96-well plate. On the day of transfection, the cells were 50-90% confluent. For each well to be transfected, a mixture of Lipofectamine 2000™ (ThermoFisher Scientific) and Opti-MEM™ (ThermoFisher Scientific) was prepared and incubated at room temperature for 5 minutes (Solution 1). After incubation, the Lipofectamine 2000™: Opti-MEM™ mixture was added to a separate mixture containing the CRISPR nuclease plasmid (NLS-tagged), RNA guide plasmid, and Opti-MEM™ (Solution 2). In the case of negative controls, the CRISPR nuclease plasmid was excluded. Solutions 1 and 2 were mixed by pipetting up and down, then incubated at room temperature for 25 minutes. Following incubation, the Solution 1 and 2 mixture was added dropwise to each well of a 96-well plate containing the cells. Approximately 72 hours post transfection, cells were trypsinized by adding TrypLE™ (ThermoFisher Scientific) to the center of each well and incubating at 37° C. for approximately 5 minutes. D10 media was then added to each well and mixed to resuspend cells. The resuspended cells were centrifuged for 10 minutes to obtain a pellet, and the supernatant was discarded. The cell pellet was then resuspended in QuickExtract™ buffer (Lucigen®), and cells were incubated at 65° C. for 15 minutes, 68° C. for 15 minutes, and 98° C. for 10 minutes.
(§2) Each Nuclease A variant and RNA guide (see Table 5) was cloned as described in Example 2. HEK293T cells were further transfected, followed by NGS analysis, as described in Example 2. For each target, indel ratios, referring to the percentage of NGS reads comprising indels, were calculated for Nuclease A (SEQ ID NO: 1) and for each variant of Nuclease A. The indel ratios shown in Table 6 were calculated as the average of two bioreplicates, each of which contained two technical replicates.

[3] = molecular target: T3, Nuclease A I67R/D568R/E706R; assay: cell_activity; PAM NGG (AGG); HEK293T
Description: as §1, §2

Binder | binding signal [1] | activity [2] | activity [3]
B1 | 7.07 fold vs Nuclease A | 0.044 indel ratio | 0.37 indel ratio
B2 | 4.43 fold vs Nuclease A | 0.049 indel ratio | 0.325 indel ratio
